Here are results for two molecules from patent publication US8722637B2, “Methods and compositions of IG20 and DENN-SV splice variants” (The Board of Trustees of the University of Illinois, priority 2003, dated 2014).

Common to all, as to format: cell-based, human
One experiment concerns caspase-3. In words: Caspase-3 activation in HeLa IG20 cells. As to conditions: 5 hours; TRAIL, or TNF-α and cycloheximide. As to the method: FIG. 15: IG20 Cells show increased specific activation of caspases upon TRAIL treatment A) Initiator caspases—Hela IG20 cells and control cells treated with TRAIL for 1H, were stained, with flourochrome-conjugated peptide inhibitors of specific active caspases as indicated, fixed and analyzed by FACS. B) Caspase-8 cleavage—IG20 HeLa cells and control cells were treated with TRAIL for either 1H or 3H, lysed and immunoblotted for the 10 kDa cleaved product of active caspase-8 using the 6B6 monoclonal antibody. […]
Caspase activation—To assess the general activation of caspases, cells were stained with FITC tagged caspase inhibitor Val-Ala-Asp-flouromethyl ketone Promega, Madison, Wis.) for 10 minutes at 37° C., washed and analyzed by FACS for percentage of FITC positive cells. The initiator caspases were analyzed by using carboxyflourescein labeled peptide flouromethlyketone inhibitors (FAM-peptide-FMK) directed against active caspase-8, 9 and 10 (APOLOGIX caspase detection kit, Cell Tech Inc., Minneapolis, Minn.). […] Cells were collected, washed once, resuspended in Perm/wash buffer and analyzed by FACS for PE positive population. […]

A further experiment relates to PA-1 cells. As to the kind of experiment: TRAIL-induced apoptosis in PA-1 cells (active caspase 3). To be noted: TRAIL three hours. As to the method:
FIG. 12: Effects of IG20 on PA-1 Cell Phenotypes. (A) Growth Rates. PA-1 and PA-1-IG20 cells were plated as described in Materials and Methods. Cells were then harvested and counted on the indicated days. Data are presented as mean+standard deviation of three plates for each sample. P values were <0.05 for all test groups. (B) TNFα-Induced Apoptosis. Cells were either untreated or treated with TNFα and cyclohexamide (CHX) for three hours, as described in Materials and Methods and then tested for percentages of cells with active caspase 3. (C) TRAIL-Induced Apoptosis. Cells were either untreated or treated with TRAIL for three hours and then tested for percentages of cells with active caspase 3, in the presence or absence of Z-VAD, an inhibitor of caspase activation. (D) Response to […] and TRAIL Treatment. PA-1-IG20 cells exposed to 6 and 12Gy of […] were plated as described in Materials and Methods. Twenty-four hours later, cells were either untreated or treated with TRAIL for 3 hours. All cells were then harvested and tested for levels of active caspase 3. (E) TNFα- and TRAIL-Induced NFκB Activation. Cells transfected with the NFκB-luciferase reporter were serum-deprived and then subjected to mock, TNFα, TRAIL or zVAD treatments for 5 hours. Cells were then lysed and tested for levels of luciferase activity. […]

In a further experiment the test system is HeLa IG20 cells. In words: TRAIL or TNF-α/cycloheximide induced apoptosis in HeLa IG20 cells (caspase activation, TMRE, Hoechst). To be noted: 5 hours; TRAIL 100 ng/mL, or 10 ng/mL TNF-α and 10 μg/mL cycloheximide. As to the method: FIG. 13: IG20 transfected HeLa cells show increased apoptosis upon TRAIL treatment. HeLa-IG20 and control cells were treated for 5 hours with TRAIL at 100 ng/mL or with 10 ng/mL of TNF-α and 10 μg/mL of Cycloheximide and analyzed for apoptosis. A) Activation of caspases—cells were incubated for 10 minutes with FITC labeled general caspase inhibitor VAD FMK (Val-Ala-Asp-flouromethyl ketone) and analyzed by FACS. Numbers in the histogram indicate percentage of FITC positive cells. B) Mitochondrial Depolarization—Loss of the dye TMRE is indicative of mitochondrial depolarization and the numbers shown in the FACS histograms represent percentage of TMRE negative cells. All the above experiments were done in triplicates and results shown are representative histograms. […] D) Percentage of cells with condensed chromatin was calculated by counting 3 fields containing at least 200 cells each and error bars indicate mean±S.D.
Mitochondrial depolarization and chromatin condensation—2×10^5 HeLa IG20 and Vector control cells were plated into a 12-well culture dish and allowed to grow for 48 hours. […] Cells were assessed for loss of mitochondrial membrane potential by staining with tetramethylrhodamine ethyl ester (100 nm, Molecular Probes, Eugene, Oreg.) for 10 minutes, washed once with ice-cold PBS, collected and subjected to FACS analysis. […]

Experiment [1] concerns HeLa IG20 and control cells. As to the kind of experiment: Inhibition of TRAIL induced apoptosis by caspase inhibitors and DN-FADD (active caspase-3). As to conditions: control and HeLa IG20 cells transfected with inhibitor; TRAIL 100 ng/mL 5 hours. As to the method: FIG. 16. IG 20 enhanced apoptosis can be inhibited by caspase inhibitors and DN FADD HeLaIG20 and control cells (1×10^5 per well in a 6 well plate) were co-transfected with GFP-F vector along with either Crm A, p35 or DN-FADD in the ratio of 1:10. Twenty-four hours post transfection, TRAIL was added at a concentration of 100 ng/mL for 5 hours and both treated and untreated cells were stained with PE-conjugated anti-caspase3 antibodies and subjected to FACS analyses. The data were obtained from only GFP positive cells and represent 2 independent experiments carried out in duplicate.
Transfection with dominant negative FADD, CrmA and p35 constructs—Control vector and IG20 stably transfected HeLa cells were plated at 5×10^5 overnight and the dominant negative FADD, Crm A and p35 constructs were co-transfected (2 μg each) with farnesylated EGFP at a ratio of 1:5. Equal numbers of wells were co-transfected with an appropriate control vector along with EGFP-F at the same ratio. The transfected cells were left untreated or treated with the TRAIL, or with TNF-α and cycloheximide, for 5 hours and cells were collected and stained for active caspase-3 (anti caspase-3 antibody) and subjected to FACS analysis to detect active caspase-3 staining in GFP-positive cells.

B1: TRAIL: recombinant human TRAIL, TNF Related Apoptosis Inducing Ligand, purchased from Peprotech (protein, UniProt P50591 1-281, looked up)
Tumor necrosis factor ligand …: MAMMEVQGGPSLGQTCVLIVIFTVLLQSLCVAVTYVYFTNELKQMQDKYSKSGIACFLKEDDSYWDPNDEESMNSPCWQVKWQLRQLVRKMILRTSEETISTVQEKQQNISPLVRERGPQRVAAHITGTRGRSNTLSSPNSKNEKALGRKINSWESSRSGHSFLSNLHLRNGELVIHEKGFYYIYSQTYFRFQEEIKENTKNDKQMVQYIYKYTSYPDPILLMKSARNSCWSKDAEYGLYSIYQGGIFELKENDRIFVSVTNEHLIDMDHEASFFGAFLVG
As to B1, in the experiment with caspase-3, the “Relative increase in caspase-3 activation, HeLa IG20 relative to control cells” value is given as “five fold increase”. Also, the TRAIL-induced apoptosis entry is listed as “highly susceptible to TRAIL-induced apoptosis” with PA-1 cells (PA-1-IG20 cells) and “almost completely resistant” in the experiment on PA-1 cells (PA-1 cells). Besides, the “Increase in cells undergoing apoptosis, HeLa IG20 versus control cells” value in the experiment on HeLa IG20 cells is given as 3-3.5 fold.

B2: p35: baculovirus derived general caspase inhibitor (protein, UniProt P08160 1-299, looked up)
Early 35 kDa protein: MCVIFPVEIDVSQTIIRDCQVDKQTRELVYINKIMNTQLTKPVLMMFNISGPIRSVTRKNNNLRDRIKSKVDEQFDQLERDYSDQMDGFHDSIKYFKDEHYSVSCQNGSVLKSKFAKILKSHDYTDKKSIEAYEKYCLPKLVDERNDYYVAVCVLKPGFENGSNQVLSFEYNPIGNKVIVPFAHEINDTGLYEYDVVAYVDSVQFDGEQFEEFVQSLILPSSFKNSEKVLYYNEASKNKSMIYKALEFTTESSWGKSEKYNWKIFCNGFIYDKKSKVLYVKLHNVTSALNKNVILNTIK
With B2, the “Effect on TRAIL induced apoptosis (active caspase-3)” value in experiment [1] was “abrogated TRAIL induced apoptosis”.
